Measurements: the nanobody polyreactivity screen of Harvey et al. (2022)

Test: yeast display, Sf9 membrane polyspecificity reagent, FACS + sequencing; frameworks hold sequencing errors
Method in brief: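 Sorting gates, low and high (top ~1%), were placed on anti-HA fluorescence to track expression and on streptavidin fluorescence to track reagent binding. A clone's polyreactivity label is taken from the gate it came out of. The reagent was 10% biotinylated, detergent-solubilized Sf9 membrane, applied for 1 hour at 4 °C to galactose-induced yeast display cells.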

Sequence	polyreactivity (PSR sort gate)
QVQLVESGGGLVQAGGSLRLSCAASGLIFQVYTMGWYRQAPGKERELVAAISWDAGSTYYADSVKGRFTISRDNAKNTVYLLMNSLKPEDTAVYYCATTQYTTYGRRYYWGQGTQVTVSS	high polyreactivity
QVQLVESGGGLVQAGGSLRLSCAASGLIFQYYVMGWYRQAPGKERQLVAAISARGGGTYYADSVKGRFTISRDNAKNTVYLQMNSLKPEDTAVYYCAADPVYAGPGYDYWGQGTQVTVSS	high polyreactivity
QVQLVESGGGLVQAGGSLRLSCAASGLIFRANSMGWYRQPPGKVRELVAAISSGGSTYYADSVKGRFTISRDNAKNTVYLQMNSLIPEDTAFYYCAALGQSPSRFGYWGQGTQVTVSS	low polyreactivity
QVQLVESGGGLVQAGGSLRLSCAASGLIFRGYAMGWYRQAPGKERELVAAISRSGGRTYYADSVKGRYTISRDNAKNTVYLQMNSLKPVDTAVYYCAAQWLYLEYDYWGQGTQVTVSS	high polyreactivity
QVQLVESGGGLVQAGGSLRLSCAASGLIFRHYAMGWYRQAPGKERELVDAITRSGGSTNYADSVKGRFTISRDNAKNTVYLQMNSLKPEDTAVYYCNAGIRYFVVGRSSYDYWGQGTQVTVSS	low polyreactivity
QVQLVESGGGLVQAGGSLRLSCAASGLIFRHYTMGWYRQAPGKERELVAAISRSGGSTRYADSVKGRFTISRDNAKNTVYLQMNSLKPEDTAVYYCAASSVKSTWTLDYWGQGTQVTVSS	high polyreactivity
QVQLVESGGGLVQAGGSLRLSCAASGLIFRKNAMGWDRQAPGKERELVAAMSYNGASTYYADSVKGRFTISRDNAKNTVYLQMNSLKPEDTAVYYCAAYAGYSDQARYYYWGQGTQVTVSS	high polyreactivity
QVQLVESGGGLVQAGGSLRLSCAASGLIFRPYAMGWYRQAPGKERELVAAISSSGGSTYYADSVKGRFTISRDNAKNTVYLQMNSLKPEDTAVYYCATYFARGYNSWGQGTQVTVSS	high polyreactivity
QVQLVESGGGLVQAGGSLRLSCAASGLIFRPYDMGWYRQAPGKERELVAAISNGDSTNYADSVKGRFTISRDNAKNTVYLQMNSLKPEDTAVYYCAAEDYYIYREPYDYWGQGTQVTVSS	low polyreactivity
QVQLVESGGGLVQAGGSLRLSCAASGLIFRPYTMGWYRQAPGKERELVAAISRSGGSTYYADSVKGRFTISRDNAKNTVYLQVNSLKPEDTAVYYCNAVPRRQGFNYWGQGTQVTVSS	high polyreactivity
QVQLVESGGGLVQAGGSLRLSCAASGLIFRSYAMGWYRQAPGKERELVARISIRGGSTYYADSVKGRFTISRDNAKNTVYLQLNSLKPEVTAVYYCAAVGYFGGYRYDYWGHGTQVTVSS	high polyreactivity
QVQLVESGGGLVQAGGSLRLSCAASGLIFRTNAMGGYRQAPGKERELVAAISWSTGTTYYADSVKGRFTISRDIAKNTVYFQMNSVNPEDTAVSYCARTLRWTYRYGYWGQGTQVTVSS	high polyreactivity
QVQLVESGGGLVQAGGSLRLSCAASGLIFRVNAMGWYRQAPGKERELVASISVSGGSTYYADSVKGRFTISRDNAKNTVYLQMNSLKPEDTAVYYCAASQYHKGYLFSYPYEYDYWGQGTQVTVSS	low polyreactivity
QVQLVESGGGLVQAGGSLRLSCAASGLIFRWYAMGWYRQAPGKERELVAAISRRGGTTNYADSVKGRFTISRDNAKNTVYLQMNSLKPEDTAVYYCAADYQSVGGAEYDYWGQGTQVTVSS	high polyreactivity
QVQLVESGGGLVQAGGSLRLSCAASGLIFRYKAMGWYRQAPGKERELVAAISRSRGTTYYADSVKGRFTISRDNAKNTVYLQMNSLKPEDTAVYYCATRISQSYYNYGYWGQGTQVTVSS	high polyreactivity
QVQLVESGGGLVQAGGSLRLSCAASGLIFRYYAMGWYRQAPGKERELVAAISKSGGRTYYADSVKGRFTISRDNAKNTVYLQMNSLKPEDTAVYYCATGVRGYVGWSSALYYEYDYWGQGTQVTVSS	high polyreactivity
QVQLVESGGGLVQAGGSLRLSCAASGLIFRYYAMGWYRQAPGKERELVATIRGGGSTYYADSVKGRFTISRDNAKNTVYLQMNSLKPEDTAVYYCAADPYSYGARGARGDYWGQGTQVTVSS	low polyreactivity
QVQLVESGGGLVQAGGSLRLSCAASGLIFRYYAMGWYRQAPGKERELVAVISRRGDSTYYADSVKGRFTISRDNAKNTVYLQMNSLKPEDTAVYYCAAQAFVSYFKFRGGYWGQGTQVTVSS	high polyreactivity
QVQLVESGGGLVQAGGSLRLSCAASGLIFSDNAMGWYRQAPGKEREFVASISDSGTTTYYADSVKGRFTISRDNAKNTVYLQMNSLKPEDTAVYDCNARPGQSGARFGYWGQGTQVTVSS	high polyreactivity
QVQLVESGGGLVQAGGSLRLSCAASGLIFSGYAMGWYRQAPGKDRELVAAITWSGGRTYADSVKGRFTISRDNAKNTVYLQMNSLKPEDTAVYYCNADAYIDYWPYTWDYDYWGQGTQVTVSS	high polyreactivity

Sequence	polyreactivity (PSR sort gate)
QVQLVESGGGLVQAGGSLRLSCAASGLIFSPYAMGWYRQAPGKEREFVAAITSRGGTYYADSVKGRFTISRDNAKNTVYLQMNSLKPEDTAVYYCAAKSLYSKRQQYEYWGQGTQVTVSS	low polyreactivity
QVQLVESGGGLVQAGGSLRLSCAASGLIFSRYAMGWYRQAPGKERELVAVISWSGGRTYYADSVKGRFTISRDNAKNTVYLQMNSLKPEDTAVYYCAARSYGGQGVRMDYWGQGTQVTVSS	high polyreactivity
QVQLVESGGGLVQAGGSLRLSCAASGLIFSSNAMGWYRQAPGKERELVAAISRRGGNTYYADSVKGRFTISRDNAKNTVYLQMNSLKPEDTAVYYCAIRYVGRGTSYQDYYWGLGTQVTVSS	high polyreactivity
QVQLVESGGGLVQAGGSLRLSCAASGLIFSSYVMGWYRQAPGKERELVAAISSKGGSTYYADSVKGRFTISRDNAKNTVYLQMNSLKPEDTAVYYCAARVYYPVRYGYWGQGTQVTVSS	high polyreactivity
QVQLVESGGGLVQAGGSLRLSCAASGLIFSYNAMGWYRQAPGKERELVAAISYSGGSTYYADSVKGRFTNSRDNAKNTVYLQMNSLKPEDTAVYYCAAVWRRQGSAYVGSYGYDYWGQGTQVTVSS	high polyreactivity
QVQLVESGGGLVQAGGSLRLSCAASGLIFSYNAMGWYRQAPGKERELVATIRRVGSTNYADSVKGRFTISRDNAKNTVYLQMNSLKPEDTAVYYCAARSLRYGRGMYYWGQGTQVTVSS	high polyreactivity
QVQLVESGGGLVQAGGSLRLSCAASGLIFSYYAMGWYRQAPGKERELVAAIDWISGSTYYADSVKGRFTISRDNAKNTVYLQMNSLKPEDTAVYYCAAYGSFWYAGFGYWGQGTQVTVSS	low polyreactivity
QVQLVESGGGLVQAGGSLRLSCAASGLIFSYYAMGWYRQAPGKERELVAAITGSGGTTYYADSVMGRFTISRDNANNTVYLQMNSLKPEDTAVYYCATPPPEVWQRWYREYDYWGQGTQVTVSS	low polyreactivity
QVQLVESGGGLVQAGGSLRLSCAASGLIFTNNAMGWYRQAPGKERELVAGINSGGRTNYADSVKGRFTISRDNAKNTVYLQKNSLKPEDTAVYYCAARWWVKSRPNRYNYWGQGTQVTVSS	high polyreactivity
QVQLVESGGGLVQAGGSLRLSCAASGLIFTPYAMGWYRQAPGKERELVAAISVSGGRTYYADSVKGRFTISRDNAKNTVYLQMNSLKPEDTAVYYCAASDRYGGRDYWGQGTQVTVSS	high polyreactivity
QVQLVESGGGLVQAGGSLRLSCAASGLIFTRNFMGWYRQAPGKERELVAAITSGGSTYYADSVKRRFTISRDNAKNTVYLQMNSLNPEDTADYYCAAGCDYLLSTVRFDYWGQGTQVTVSS	high polyreactivity
QVQLVESGGGLVQAGGSLRLSCAASGLIFTTNAMGSYRQAPGKEREFVAAISPSGGSTYYADSVKGRFTISRDNAKNTVYLQMNRLKPEDTAVYYCAARYSPVWHKYYYWGQGTQVTVSS	high polyreactivity
QVQLVESGGGLVQAGGSLRLSCAASGLIFTWYAMGWYRQAPGKERELVADISWSDDSTNYADSVKGRFTISRDNAKNTVYLQMNSLKPEDTAVYYCATQLDYGGRVGDADDYWGQGTQVTVSS	low polyreactivity
QVQLVESGGGLVQAGGSLRLSCAASGLIFTYYAMGWYRQAPGKERELVAAINYSGGSTYYADSVKGRFTISRDNAKNTVYLQMNSLKPEDTAVYYCAARRVTQTEGPMGYWGQGTQVTVSS	low polyreactivity
QVQLVESGGGLVQAGGSLRLSCAASGLIFTYYAMGWYRQAPGKERELVAAITSGGSTNYADSVKGRFTISRDNAKYTVYLQMNSLKPEDTAVYYCAADYDTGSERYEYWGQGSQVTVSS	low polyreactivity
QVQLVESGGGLVQAGGSLRLSCAASGLIFVAYAMGWYRQAPGKERELVAAISRSGGSTYYADSVKGRFTISRDNAKNTVYLQMNRLKPEDTAVYFCAKYYGARHVDDDYWGQGTQVTVSS	high polyreactivity
QVQLVESGGGLVQAGGSLRLSCAASGLIFVDNAMGWYRQAPGKERELVAAIDSGGSTNYADSVKGRFTISRDNAKNTVYLQMNSLKPEDTAVYYCAADWIYAPWYYQESVEYYYWGQGTQVTVSS	low polyreactivity
QVQLVESGGGLVQAGGSLRLSCAASGLIFVFNTLGWYRQAPGKEMELVAVITSGGSTNYADSVKGRFTISSDNEKNTVYLQMISLKPEDTAVYYCNVDRQVITGRYIGDYWGEGTQVTVSS	low polyreactivity
QVQLVESGGGLVQAGGSLRLSCAASGLIFVGYAMGWYRQAPGKERELVAAITSGGSTKYADSVKGRFTISRDNAKNTVYLQMNSLKAEDTAVYYCAASGWRNWWSARNYYWGQGTQVTVSS	low polyreactivity
QVQLVESGGGLVQAGGSLRLSCAASGLIFVGYAMGWYRQAPGKERELVAAITSGGSTKYADSVKGRFTISRDNAKNTVYLQMNSLKPEDTAVYYCAASGWRNWWSARNYYWGQGTLVTVSS	low polyreactivity
